Biological target: importin-alpha2 (mImpα2) (Mus musculus, UniProt P52293)
Test: MST

Kd: ~1000 nM
B1: TAF8 NLS NLS (peptide)
chain: PVKKPKIRRKKSLS

— paper PMC12375970 (2025)
